EP4596582A1 (Sichuan Kelun-Biotech Biopharmaceutical Co., Ltd., dated 2025)

Biological target: T1, human B7-H3 on human tumor cells (MCF-7, HT29, NCI-N87, HCC1806, HCC827) (human, UniProt Q5ZPR3 29-534)
T1 construct: whole, on cells
T1 sequence (looked up): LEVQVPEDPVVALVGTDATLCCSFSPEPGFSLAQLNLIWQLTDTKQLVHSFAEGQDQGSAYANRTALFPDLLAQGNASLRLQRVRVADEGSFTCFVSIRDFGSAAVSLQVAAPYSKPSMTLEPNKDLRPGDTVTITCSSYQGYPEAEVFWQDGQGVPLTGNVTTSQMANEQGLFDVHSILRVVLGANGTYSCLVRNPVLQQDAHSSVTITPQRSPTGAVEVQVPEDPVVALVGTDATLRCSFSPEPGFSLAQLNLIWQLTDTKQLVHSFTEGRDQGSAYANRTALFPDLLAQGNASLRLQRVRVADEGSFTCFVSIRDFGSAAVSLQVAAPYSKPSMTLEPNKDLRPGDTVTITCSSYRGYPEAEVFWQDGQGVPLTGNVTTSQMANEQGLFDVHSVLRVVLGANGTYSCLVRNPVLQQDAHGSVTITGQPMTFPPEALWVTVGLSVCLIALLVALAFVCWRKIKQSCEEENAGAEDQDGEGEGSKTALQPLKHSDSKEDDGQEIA
Assay: flow cytometry on HCC1806 cells

B1: anti-human-B7-H3 human antibody 2#8890 (antibody, human IgG1, kappa, V domains shown)
VH: QVQLQESGPGLVQPSGTLSLTCAVSGGSDSSTNWWTWVRQSPGQGLEWIGEISPIGFTSYSPSLRSRVTISVDKSKTQFSLKLSSVTAADTAVYYCARDRLYFAFWGQGTLVTVSS
VL: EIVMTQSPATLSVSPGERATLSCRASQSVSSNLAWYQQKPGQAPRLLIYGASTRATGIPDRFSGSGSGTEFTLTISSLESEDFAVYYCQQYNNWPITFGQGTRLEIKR
EC50: 9.67 ng/mL
